The values below come from patent US11708423B2, “Chimeric engulfment receptor molecules and methods of use” (CERO THERAPEUTICS, INC., priority 2017, dated 2023).

Experiment [1] deals with dexamethasone treated thymocytes. Briefly: Phagocytic activity of CER+ Ba/F3 cells against primary apoptotic thymocytes. It counts as cell-based, C3H mouse. The note with it: for engulfment of dexamethasone-treated thymocytes: target:effector 10:1, 3 hours or overnight, fluorescent microscopy, vs EGFRt control. The procedure:
One day prior to phagocytic assay, primary thymocytes were isolated from a C3H mouse (Charles River Laboratories International, Inc.). Thymocytes were cultured in complete RPMI 1640 growth media supplemented with 10% fetal bovine serum and 1% penicillin-streptomycin in a 6-well plate. To induce apoptosis and phosphatidylserine expression on the cell surface, thymocytes were treated with 1 μM dexamethansone for 24 hours. Untreated thymocytes were used as a negative control. Thymocytes were collected from the 6-well plates, washed once with sterile 1X PBS, and then stained with 1 ng/μ1 pH sensitive pHrodo™ Red dye (ThermoFisher Scientific, Catalog #P36600) in PBS at room temperature for 15 minutes. Labeling target cells with pHrodo Red dye permits visualization of cells that are engulfed and transported into lysosomes due to their increased light emission in the acidic lysosomal environment (Miksa et al., 2009, Immunol. Methods 342:71-7). The cells were then supplemented with growth media and washed one more time to remove any excess pHrodo Red. pHrodo Red stained thymocytes were plated on a flat bottom 96 well plate at 250,000 cells/well in RMPI 1640 complete media. […]
[…] The 96 well plate was then viewed using KEYENCE BZ-X710 fluorescence microscope, 20X objective. […]
A phagocytic index was calculated by multiplying [mean of total number of engulfed target cells/total number of counted CER modified cells (e.g., phagocytic frequency)] by [average area of target cell staining per CER+Ba/F3 cell x 100 (e.g., hybrid capture)] as compared to control EGFRt+Ba/F3 cells (see, FIG. 8). […]
Primary C3H mouse thymocytes were isolated, treated with dexamethasone, and stained with pHrodo Red as described in Example 1. […] Co-culture experiments were carried out at a 10:1 target cell to effector cell ratio, and Ba/F3 CER07^+tEGFR^+ cells were quantified for phagocytosis by fluorescence microscopy and FACs as described in Example 1. […]

For experiment [2], the system named is CT26 murine colon carcinoma cells. Briefly: Phagocytic activity of CER+ Ba/F3 cells against murine cell line CT26. The settings on record: target:effector 5:1, 3 hours. It counts as cell-based. The procedure:
One day prior to the phagocytosis assay, CT26 murine colon carcinoma cells were cultured in complete RPMI 1640 growth media supplemented with 10% fetal bovine serum and 1% penicillin-streptomycin in a 6-well plate and treated with 1 mM staurosporine (STS) for 12 hours to induce apoptosis. Untreated CT26 cells were used as a negative control.
On the day of the phagocytosis assay, CT26 cells were collected, washed twice with 1×PBS to remove excess staurosporine and then stained with 1 ng/μ1 pHrodo Red in PBS at room temperature for 15 minutes. […]
Target CT26 cells were co-cultured with stained, CER05^+tEGFR^+ cells at a ratio of 5:1 (target cell:effector cell) for 3 hours at 37° C. […] The 96 well plate was then viewed using KEYENCE BZ-X710 fluorescence microscope, 20X objective. […]
A hybrid capture algorithm that detects fluorescence of pHrodo Red within CELLTRACE Violet staining area was applied to fluorescent images to quantify the area of engulfed target cells/area of CER^+ B cells or control tEGFR+ B cells (see, FIG. 12). […]
A hybrid capture algorithm that detects fluorescence of pHrodo Red within CELLTRACE Violet staining area was applied to fluorescent images to quantify the area of engulfed target cells/area of CER^+ B cells (see, FIG. 17). […]

For a further experiment, the system named is human primary B cells. Briefly: Proliferation of CER+ B cells co-cultured with paclitaxel treated Jurkat cells (CELLTRACE Violet dilution). In kind it is cell-based. The note with it: 5 days co-culture with paclitaxel (30 μM) treated Jurkat cells, no exogenous cytokines. On the procedure: The proliferation capacity of CER19+ and CER21+ human primary B cells was evaluated by co-culture with paclitaxel (30 μM) treated Jurkat lymphoma cells. CER-transduced B cells were labeled with CELLTRACE Violet and then co-cultured with paclitaxel treated Jurkat cells a target cell to effector cell ratio of 5:1 at 37° C. in the absence of exogenous cytokines for 5 days. Proliferation of CER19+ or CER21+B cells was assessed by flow cytometry by measuring dilution of CELLTRACE Violet (FIG. 23). Both CER19+ and CER21+ B cells increased approximately 10-fold after 5 days of co-culture in the absence of exogenous cytokines.

B1: CER05: Tim4 binding domain, Tim4 transmembrane domain, TLR4 signaling domain; SEQ ID NO:81 (protein)
chain: MSKGLLLLWLVTELWWLYLTPAASEDTIIGFLGQPVTLPCHYLSWSQSRNSMCWGKGSCPNSKCNAELLRTDGTRIISRKSTKYTLLGKVQFGEVSLTISNTNRGDSGVYCCRIEVPGWFNDVKKNVRLELRRATTTKKPTTTTRPTTTPYVTTTTPELLPTTVMTTSVLPTTTPPQTLATTAFSTAVTTCPSTTPGSFSQETTKGSAFTTESETLPASNHSQRSMMTISTDIAVLRPTGSNPGILPSTSQLTTQKTTLTTSESLQKTTKSHQINSRQTILIIACCVGFVLMVLLFLAFLKFYFHLMLLAGCIKYGRGENIYDAFVIYSSQDEDWVRNELVKNLEEGVPPFQLCLHYRDFIPGVAIAANIIHEGFHKSRKVIVVVSQHFIQSRWCIFEYEIAQTWQFLSSRAGIIFIVLQKVEKTLLRQQVELYRLLSRNTYLEWEDSVLGRHIFWRRLRKALLDGKSWNPEGTVGTGCNWQEATSI
modifications: CER05 chimeric engulfment receptor
Turning to B1, the “co-localization of pHrodo red labeled thymocytes with LysoTracker green vesicles” value in experiment [1] (6 hours, 50 nM LysoTracker green) is on record as “pHrodo-labeled target cells have been internalized into lysosomes”. The “engulfment of dexamethasone-treated thymocytes” value in experiment [1] was “engulf dexamethasone-treated thymocytes”. Further, in experiment [2], the “phagocytosis of staurosporine treated CT26 cells” value is recorded as “in vitro phagocytosis”.

B2: CER07: Tim4 binding domain, TLR4 juxtamembrane spacer, TLR4 transmembrane domain, TLR4 signaling domain; SEQ ID NO:83 (protein)
chain: MSKGLLLLWLVTELWWLYLTPAASEDTIIGFLGQPVTLPCHYLSWSQSRNSMCWGKGSCPNSKCNAELLRTDGTRIISRKSTKYTLLGKVQFGEVSLTISNTNRGDSGVYCCRIEVPGWFNDVKKNVRLELRRATTTKKPTTTTRPTTTPYVTTTTPELLPTTVMTTSVLPTTTPPQTLATTAFSTAVTTCPSTTPGSFSQETTKGSAFTTESETLPASNHSQRSMMTISTDIAVLRPTGSNPGILPSTSQLTTQKTTLTTSESLQKTTKSHQINSRQTPVLSLNITCQMNKTIIGVSVLSVLVVSVVAVLVYKFYFHLMLLAGCIKYGRGENIYDAFVIYSSQDEDWVRNELVKNLEEGVPPFQLCLHYRDFIPGVAIAANIIHEGFHKSRKVIVVVSQHFIQSRWCIFEYEIAQTWQFLSSRAGIIFIVLQKVEKTLLRQQVELYRLLSRNTYLEWEDSVLGRHIFWRRLRKALLDGKSWNPEGTVGTGCNWQEATSI
modifications: CER07 chimeric engulfment receptor
Turning to B2, the “engulfment of dexamethasone-treated thymocytes” value in experiment [1] was “engulfed dexamethasone-treated thymocytes”. In addition, the “phagocytosis of staurosporine treated CT26 cells” value in experiment [2] is “engulfed staurosporine treated CT26 cells”.

B3: CER19: Tim4 binding and transmembrane domains, TLR5 signaling domain; SEQ ID NO:86 (protein)
chain: MSKGLLLLWLVTELWWLYLTPAASEDTIIGFLGQPVTLPCHYLSWSQSRNSMCWGKGSCPNSKCNAELLRTDGTRIISRKSTKYTLLGKVQFGEVSLTISNTNRGDSGVYCCRIEVPGWFNDVKKNVRLELRRATTTKKPTTTTRPTTTPYVTTTTPELLPTTVMTTSVLPTTTPPQTLATTAFSTAVTTCPSTTPGSFSQETTKGSAFTTESETLPASNHSQRSMMTISTDIAVLRPTGSNPGILPSTSQLTTQKTTLTTSESLQKTTKSHQINSRQTILIIACCVGFVLMVLLFLAFLTKFRGFCFICYKTAQRLVFKDHPQGTEPDMYKYDAYLCFSSKDFTWVQNALLKHLDTQYSDQNRFNLCFEERDFVPGENRIANIQDAIWNSRKIVCLVSRHFLRDGWCLEAFSYAQGRCLSDLNSALIMVVVGSLSQYQLMKHQSIRGFVQKQQYLRWPEDFQDVGWFLHKLSQQILKKEKEKKKDNNIPLQTVATIS
modifications: CER19 chimeric engulfment receptor
In the case of B3, the “increase of CER+ B cells” value in the experiment with human primary B cells is “approximately 10 fold”.
